Results on 23 sequences are retold here after a protein production outcome set (Wang et al. 2014).

This data set can be described thus: label from the status in PepcDB records.
In the case of “MENDSSIQWEHSHDFGLDNKLHENKVKTVFWLTTVIMVLEIGAGTWSGSMALLADGWHMGTHSAAFLIAIFAYSYAKKHANNKDFSFGTGKVNSLGGFASAIALAIVALMMIVESVQRLLEPQSIHFNEAIVVAIIGLVVNVASVFILHDDHHHHGEHHHDHDHNMKAAYFHVLADTLTSLLAIVALLIGKYVGLIWMDPLMGIVGAIVILRWSYGLIKDSSNVLLDKSVKKSTLEQISKALSKKNTVINDIHVWTIATAHQAAILKVTSAQPLNSDEYEGILREILPQLSHISIEIRHDYSL”, the protein production result is reported as “failed”.

For “MNNGQPLKHRGVTVEDLLRLRSVRDPHYASDGTHGVFVQKSIDEEKQYCSHLYIWTEDGAVRQWTFGRWRDTRPRFSPDSKTIAFLSDRSGHTQLWLLPADGGEARQLTFFKNGVRDYVWAPDGTFLIALTTLGDNETIDDREEPKKKETKPADLKPRVVERLYYKSDASGFLDGKQAVLVCIDATSGKTEALTSREEEISSFAISPNGRTLAFMANRNEDPDTTFTRDIVLLDLESKAETNLTKGSGTFTSLAWSPDGTKLAAIGHDLAFLGATIHQLYVFEPERGTKRVLTADWDVHLGDAMVGDTHADAKGPGPIWKRDGTGLYVTASERGRVNVYFVPLDGPIVPIIEGDFHVYGLAIHPNEQQAVAAISEPTMIGDLYTISLESGTKTRLTRVNEALENEVTFADAEPFTYQSTDGWDIQGWIMKPPRLGDGEKAPLVVEIHGGPHTMYGFTFFHEFQLLASSGYVVLFTNPRGSHGYGQSFVNAVRGDYGGMDYEDIMAGVDAAIKQFAFIDETRLGVTGGSYGGFMTNWIVGHTNRFRAAVTQRSISNWLSFAGVSDIGYFFTKWEVGCDVWEDAERLWHHSPLKYVKNVRTPLLILHSEHDYRCPIEQAEQLFIALKQLGQETKLVRFPDANHDLSRTGNPALRLERLRQIVGWFDHYLKGPLD”, the protein production entry is “failed”.

Regarding “DDSLGEAVTTRAEALTIPAVLRARNLLSTTVARTPLVCDGTLPPFVPVAAPPGAATMQTPFHRMLATADDLLFNGVACWALDRDESGTCIGAIHIPLDTWQIEENTVRVNGKAVDPMEVCIFVGIHGGLLTHASETFTDARNLVRAAARVAQNPAALIELRQTNNAQLSPDDVDRIINGYVAARRGRNSGVGFSSSGLEVHEHEMAKENLLIEGRNAAAVDVARAMNVPAAFIDATVGGTSLSYQNAASRMIELVTFGVEPLMSAIEARLNQPDMHADHLANPLKFDPAALLDAIPTTPTIG”, the protein production result is “not failed”.

As to “MSATLQDHTVAFRDPALTDIARAIAHGDVARIKALAPTVDLAAHGDQNVTLLEWAIWNEQPRALAALLDAGADPSLPGMDQETVVHMAAMAQDPEYLQILLQHKAPIDVVSARAGWTPLFRAMQSKRDAQIDLLIKAGADVQRVDHTGNSLLHLAAQSGAASPAVLTLLNAGVDPAVRNAQQKTFQAYFFTTPDRLLNASGQQVRSEVRAWLNAHNIPVESSR”, the protein production entry is on record as “failed”.

For “MASTIYTCKECGSDLNLNPNDLFPPDFYFEAGNKGTLSFAAVDAEKFRFEKEDKIMPFFETLNYWGIQRKRTKIKCTSCNHLIGYIYDDGPPLTGGIGQYGFGPSQVIPRAPRYRFKTKARQDGWQYGGLTAFWN”, the protein production entry is “failed”.

Consider “MKHAKKSLFTFIIFMTILSITFNPFSAKAAPLMLNLPAPQVDQLYIGDDYITGKLQQEVPMHYPGNAAYVLFNNKQYNITDYTVENDVNFRLKLPKTLEAGDTLNYFTITGNVLDPVAYPGQESYKLAGPFSPIEKANIQVNYVDETNQTLATSDTLSGKLGETYTTSPKAIDGYQVKETPTNATGTYTTNTETIQINYVYEKTAVEGANVSVEYINEATNESIAPTETLSGKIGTTFQAEVKEIDGYELSQVPSNQSGTYTDQTQSVIFKYKKITTPDEVAKDVTVTYKDTKGNQLADPVILKGDIGSTFETEAKSFKGYKLTKTPSNHSSVFTSDSQEVEYVYSKDDAVITPPVTPVNPDKPIINPVKPVNPATSTVPNKNISKKNTTKTVNQTGKTSTALQLPKTGDSENNLPLIIGVSLLISGVYIFTTRRKRVK”, for which the protein production result is recorded as “failed”.

Take “MVIINTAAYHFVSITQPQTLADQIRAHGEIAGLKGTVLIANEGINLFLAGEKEAINAFYAWLCADVRFAALHVKYSVSAYKPFARFKVKVRPEIISFRRGDISPLQVRAPGVSAHTLRDWLRRGCDDNGRRLVMLDARNQQEIAYGTFSGAMTLPITKFTGFPGALAHYRDLLSDATVVSFCTGGIRCEKAVLWMRADGMDNVLQLEGGILGYFEQVGGEGYDGRCFVFDKRVALDPQLRPLYDMRVVASFARSEIS”: the protein production result was “failed”.

With “MEITIFGKGNMGQAIGHNFEIAGHEVTYYGSKDQATTLGEIVIMAVPYPALAALAKQYATQLKGKIVVDITNPLNFDTWDDLVVPADSSAAQELQQQLPDSQVLKAFNTTFAATLQSGQVNGKEPTTVLVAGNDDSAKQRFTRALADSPLEVKDAGKLKRARELEAMGFMQMTLAASEQIGWTGGFAVVK”, the protein production entry is on record as “failed”.

Turning to “ETNEITIGITVTTTGPAAALGIPERNALEFVAKEIGGHPLKVIVLDDGGDPTAATTNARRFVTESKADVIMGSSVTPPTVAVSNVANEAQVPHIALAPLPITPERAKWSVAMPQPIPIMGKVLYEHMKKNNIKTVGYIGYSDSYGDLWFNDLKKQGEAMGLKIVAEERFARPDTSVAGQVLKLVAANPDAILVGASGTAAALPQTSLRERGYKGLIYQTHGAASMDFIRIAGKSAEGVLMASGPVMDPEGQDDSALTKKPGLELNTAYEAKYGPNSRSQFAAHSFDAFKVLERVVPVALKTAKPGTQEFREAIRKALVSEKDIAASQGVYSFTETDRYGLDDRSRILLTVKDGKYVMVK”, the protein production result was “not failed”.

As for “HQPNIIPYHKGFYRAFSKLHTTTFKYQAQSPQDIIDSLDDHHHLFLFVSEGLLKGYLYLEIDSQQSIAEIKYFSSHVDYRLKGIAFELLAYALQYAFDNFDIRKVYFKIRNKNNKLIERFNGLGFHINYEYIKFKFESRNVKDQTIPE”, the protein production result was “failed”.

As for “MLLEPLKQLKQADARLNMTQGVLEGVVGEELGVLPGMDSIFSMLELERLVGFFRQATRKNHKGKPFDVIIYDGISTEETLRMIGLSSKTRLYAKYLRSLAEKTDLGRLTSPSIMRFVDESMNINSNKSPFDGMTSPAMWDTLERFLETGASAWRDPERFRSFLVMDPNNPMSVKAALRYWGCTVQAGSHVSGAFAISSSHLTSQIPKADFVPLPFASASVPFTITGLDWDKILLDQANSSIRELLSETVSHGTSLTQTVMFDTAKKLVTLFMPGFEKSEIKLYQYRGGSELLIEAGDQRRVIHLPSQIQGKVGGAKFVDRSLIVTMR”, the protein production result is “failed”.

As to “MTLDAAPHLHPAVLSPRPQPGRHRRDLHQSSRAFVLLTCIVATLALMLSLPAGLQAAEATVIVPFGGGILRDDAQTVAAAAARIEALRLSTASLGRDSAALFSAETPARLLSLTAATFEAHTTATSVVGYPPEVEVAVNIRTTPRGGDAATALRAALRAPEKLELREGILLHTRENLLEARQLALDAARHRQKAGTESESPYDRRFAALARTLRSLDTLERALSYLDGVWRHPIILAADMRQVVEASPEMPLGWTFLGEALLQLDRPQDAVEALDRALALPDAPVRARLARGIANLRLDLTALAVDDLSRVLREAPRLAPAWRARGAARMMRREYGPMCEDFIQACNLGDCEGLASARDAGHCLAPARPQTVKADD”, the protein production result is listed as “failed”.

Regarding “MHSEMTVPGFETRLAKVQDVWRDNRCLKSSSIGQYLYWIHRFHHYCIAEALDADEQLTQAGVSLFAQWYARQRRVDAECACQGAQSALRAWALGLSTLGVEIPPWQCDTDRTSESEPRLQDFAEHLRQHRGNPEATIKKKLAHIRCFLAFIAARHRPLRHLKLTDIDAFLVDCSQRYARTTTADIGSSLRGYVRFLLVTGQVTADLAPSIVTPIVRHYEQPLRALPWDDVRHILAAIDRSSPIGLRDYALLLLMSTYGLGAGEVIRLTLDDIDWQAATLRVVRPKTGVAFVLPLLPALAQALADYLKHGRPRRAPSRHVFQSMRAPHYPLSESSAIRHILVGHARKAGVTAAYLGSHVLRHTHACRQVEQEISPKVLSDILGHRSPESLSAYVRIATERLRQLPLPVPE”, the protein production result was “failed”.

As for “MNIIMNINSKAKGFVCGAVAAATYGMNPLFTLPLYKEGMSVDSVLFYRYGFAVLILGILMKVQGQSFALKKNEVLPLIVGGLLFSASSLLLFLSYKHMDAGIASTILFVYPVMVALIMFLFFHEKVSLLTVFCILLALSGIGLLYKGEGGETLSLVGMLLVILSSLSYAVYIVGVNHSTLKLMSTAKLTFYALLFGLSIYIVRLNFCSDLQAVPSLPAWGNILAMAFLPTVISLVCTAVSIHTIGSTSTAILGALEPVTALFFGVMIFGERLTPRLMLGILMILVAVTFIVVGKPLMTFLKEEVAGGMKRKLTR”, the protein production result is on record as “failed”.

“MDNPCPTCGQELEWTGQYHCSACTVDYCKVGFCPECGSELEKLQACGAANYFCNQCNELKSKSKIRFVFQPLNGNSQLEHHHHHH”: the protein production entry is “not failed”.

“RSEIVRLNSLMNDILNNIPVYLFVKDTGNDFRYLYWNKAFAEHSGISVQRAVGSTDADIFPDKKDAEHFREDDLKVMKLGRIEYLENYTTMSGEVRTVTTMKTVVPSGGQHPYIIGVSWDVT”: the protein production result is reported as “failed”.

“WQGLSSKGDLPQVEITKAFFAKQADEVTLQQADVVLVLQQEDGWLYGERLRDGETGWFPEDFARFI”: the protein production entry was “not failed”.

Regarding “MSAVTESVLESIISPVTMSEFLEEYWPVKPLVARGEVERFTSIPGFEKVRTLENVLAIYNNPVMVVGDAVIEESEGITDRFLVSPAEALEWYEKGAALEFDFTDLFIPQVRRWIEKLKAELRLPAGTSSKAIVYAAKNGGGFKAHFDAYTNLIFQIQGEKTWKLAKNENVSNPMQHYDLSEAPYYPDDLQSYWKGDPPKEDLPDAEIVNLTPGTMLYLPRGLWHSTKSDQATLALNITFGQPAWLDLMLAALRKKLISDNRFRELAVNHQSLHESSKSELNGYLESLIQTLSENAETLTPEQIFQSQDSDFDPYQSTQLVFRQLLTSYKF”, the protein production result is given as “not failed”.

“MILINLFITFLKIGLLNFGGGNGIAAIINNEIINNKHWITKEEFVNMITISRITPGPIATNIATYVGMKTAGIAGAIIATVALITAPIIIMIIILLILHKIGFLNYCLENLKPIIVALWIITIIILLENTYLKIENNKTELLKTLAIVGINFFILFFYNKISPALVIILSGFFYTLI”: the protein production entry was “failed”.

Take “MSELNLSPDKLTVLLMGGSFGAGNIKETLDELLDTDRDFQILVITGKNESLKEKIEKKLMSRYHDKNVCVLGYTDKMNDILASIDVLVSKPGGLTTTEALLKDVPMIVPYYIPGQEEENLDFLSNCGAALRTTKKYNLSILLKVLIDDPSRLEMLKRNIKSIRKSNSAQNIANLILNIISGLEHHHHHH”: the protein production entry is on record as “failed”.

With “MGNYMTYIVGLTGGIGSGKTTIANLFTDLGVPLVDADVVAREVVAKDSPLLSKIVEHFGAQILTEQGELNRAALRERVFNHDEDKLWLNNLLHPAIRERMKQKLAEQTAPYTLFVVPLLIENKLTALCDRILVVDVSPQTQLARSAQRDNNNFEQIQRIMNSQVSQQERLKWADDVINNDAELAQNLPHLQQKVLELHQFYLQQAENKNA”, the protein production result is on record as “not failed”.

“MSIYDPNPDQSLARIDALEKELANLKASHNTLDIQNKILKGFISLTNVSAGRMLIKATLQKTMEASIHQTGAQLGSLFLLDGDGRVTESILARGATDQSQKKNIVGQVLDKGLAGWVRENKRTGLINDTTKDYRWLKLPDEPYQALSALGVPIVWGDELLGILTLMHSQVNHFTPACATAMEKTAELIALVLNNARIQTKHKQNETLIQQEDDLLNQAILWFPSIIFILDNQGVLLKCGGKYLAQIGLDPKESIGKSIYYLLPEANELKSLTSHALANNIIESVSVQMERVDHGTWFYDAWFSPILDNHGQVSNVVCMLLPA”: the protein production entry is given as “failed”.

For the sequence “MSYGLIIVLMIILGIGLWHTKKYHRAVVNQVAHVWITKNAFEHTALGMAIVSPDCRFLKVNRAYGEITGYTRPELLKMAVKELTHPEDQEKDTPYLQEVFAGNIHSFTTVKRYIHKNGSTIWVRSTISAVRTERGNLEHHHHHH”, the protein production entry is recorded as “not failed”.
